According to the supplement of paper PMC10598134:
± gives the standard deviation.

Assay: collision cross section of modified peptide (TIMS, N2, iRT-aligned); higher = larger / more extended gas-phase ion
Procedure, shortened: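 Synthetic peptide pools (~100 fmol/µL in 2% acetonitrile/0.1% formic acid, iRT standard spiked 1:40) were separated on a 120-min nanoflow C18 gradient at 60 °C. They were analysed on a timsTOF Pro/HT (dda-PASEF, nitrogen, ~2.4 mbar) and identified with MaxQuant. 1/K0 was calibrated with three reference ions and aligned run-wise to the median iRT peptide deviation. Collision cross section came from the Mason-Schamp equation, averaging 1–3 technical replicates of the most abundant feature per charge state.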

[1] = charge state: 2, modification: Crotonyl
[2] = charge state: 3, modification: Crotonyl
[3] = charge state: 2, modification: Formyl
[4] = charge state: 2, modification: Hydroxyproline
[5] = charge state: 2, modification: Phospho (Y)
[6] = charge state: 2, modification: HexNAc (ST)
[7] = charge state: 2, modification: Malonyl
[8] = charge state: 2, modification: hydroxyisobutyryl
[9] = charge state: 2, modification: Biotin
[10] = charge state: 2, modification: Methyl (K)
[11] = charge state: 3, modification: Methyl (K)
[12] = charge state: 2, modification: Acetyl (K)
[13] = charge state: 2, modification: Nitro (Y)

Substance: SLEEEGAAHSGKR [_SLEEEGAAHSGK(Crotonyl)R_]
- collision cross section [1]: 420.35 ± 1.1 Å²
- collision cross section [2]: 486.66 ± 11 Å²

Substance: TQAYQDQKPGTSGLR [_TQAYQDQK(Formyl)PGTSGLR_]
- collision cross section [3]: 427.08 ± 0.79 Å²

Substance: GGPGAPGAPGPK [_GGPGAP(Hydroxyproline)GAPGPK_]
- collision cross section [4]: 326.77 ± 0.24 Å²

Substance: YTTNNSSEQR [_Y(Phospho (Y))TTNNSSEQR_]
- collision cross section [5]: 363.91 ± 0.65 Å²

Substance: VGYPGPSGPLGARGIPGIK [_VGYP(Hydroxyproline)GPSGPLGARGIPGIK_]
- collision cross section [4]: 446.49 ± 1.1 Å²
- collision cross section (charge state: 3, modification: Hydroxyproline): 508.9 ± 31 Å²

Substance: SPSDSGYSYETIGKTTK [_SPSDSGYSYETIGK(Succinyl)TTK_]
- collision cross section (charge state: 2, modification: Succinyl): 453.06 ± 1.1 Å²
- collision cross section (charge state: 3, modification: Succinyl): 530.11 ± 3 Å²

Substance: MTLSVLSR [_MTLS(HexNAc (ST))VLSR_]
- collision cross section [6]: 352.44 ± 0.8 Å²

Substance: VLDSGAPIKIPVGPETLGR [_VLDSGAPIK(Trimethyl (K))IPVGPETLGR_]
- collision cross section (charge state: 3, modification: Trimethyl (K)): 508.9 ± 0.87 Å²

Substance: SQLANTEPTK [_SQLANT(HexNAc (ST))EPTK_]
- collision cross section [6]: 372.78 ± 0.59 Å²

Substance: LAEEENKAK [_LAEEENK(Malonyl)AK_]
- collision cross section [7]: 346.72 ± 0.74 Å²

Substance: KFGVLSDNFK [_K(Malonyl)FGVLSDNFK_]
- collision cross section [7]: 373.81 ± 0.63 Å²

Substance: AAINQKLIETGER [_AAINQK(Propionyl)LIETGER_]
- collision cross section (charge state: 2, modification: Propionyl): 404.63 ± 0.38 Å²

Substance: YEITEQR [_Y(Phospho (Y))EITEQR_]
- collision cross section [5]: 328.08 ± 0.068 Å²

Substance: FDDTNPEKEEAK [_FDDTNPEK(hydroxyisobutyryl)EEAK_]
- collision cross section [8]: 401.52 ± 0.54 Å²
- collision cross section (charge state: 3, modification: hydroxyisobutyryl): 443.87 ± 2.2 Å²

Substance: LDEKENLSAK [_LDEK(Formyl)ENLSAK_]
- collision cross section [3]: 361.57 ± 0.88 Å²

Substance: SDSGKPYYYNSQTK [_SDSGK(Biotin)PYYYNSQTK_]
- collision cross section [9]: 440.01 ± 0.23 Å²

Substance: GITGKPGPK [_GITGKP(Hydroxyproline)GPK_]
- collision cross section [4]: 315.51 ± 1.9 Å²

Substance: VNVEAPDVNLEGLGGKLK [_VNVEAPDVNLEGLGGK(Methyl (K))LK_]
- collision cross section [10]: 464.13 ± 2.6 Å²
- collision cross section [11]: 541.64 ± 0.51 Å²

Substance: LDEKENLSAK [_LDEK(Acetyl (K))ENLSAK_]
- collision cross section [12]: 366.13 ± 0.94 Å²

Substance: TQAYQDQKPGTSGLR [_TQAYQDQK(Acetyl (K))PGTSGLR_]
- collision cross section [12]: 429.11 ± 1.6 Å²
- collision cross section (charge state: 3, modification: Acetyl (K)): 480.53 ± 6.7 Å²

Substance: LDHLAEKFR [_LDHLAEK(Malonyl)FR_]
- collision cross section [7]: 366.99 ± 1.7 Å²

Substance: SGRGGNFGFGDSR [_SGR(Citrullination (R))GGNFGFGDSR_]
- collision cross section (charge state: 2, modification: Citrullination (R)): 379.38 ± 0.54 Å²

Substance: GGPGSTLSFVGKR [_GGPGSTLSFVGK(Formyl)R_]
- collision cross section [3]: 378.65 ± 0.9 Å²

Substance: ALASIDSKLNQAK [_ALASIDSK(hydroxyisobutyryl)LNQAK_]
- collision cross section [8]: 410.87 ± 9.2 Å²

Substance: LYDIDVAK [_LY(Phospho (Y))DIDVAK_]
- collision cross section [5]: 363.27 ± 0.78 Å²

Substance: DTPTSAGPNSFNKGK [_DTPTSAGPNSFNK(Malonyl)GK_]
- collision cross section [7]: 408.63 ± 0.58 Å²

Substance: TVSKVDDFLANEAK [_TVSK(Dimethyl (K))VDDFLANEAK_]
- collision cross section (charge state: 2, modification: Dimethyl (K)): 415.63 Å²
- collision cross section (charge state: 3, modification: Dimethyl (K)): 482.42 ± 2.9 Å²

Substance: SLGEPAAGEGSAKR [_SLGEPAAGEGSAK(Biotin)R_]
- collision cross section [9]: 403.03 Å²

Substance: SPDEAYAIAKK [_SPDEAYAIAK(Formyl)K_]
- collision cross section [3]: 364.33 ± 1 Å²

Substance: LTEKELAEAASK [_LTEK(Acetyl (K))ELAEAASK_]
- collision cross section [12]: 387.12 ± 0.45 Å²

Substance: DASTLQSQKAEGTGDAK [_DASTLQSQK(Crotonyl)AEGTGDAK_]
- collision cross section [1]: 438.12 ± 0.54 Å²
- collision cross section [2]: 513.07 ± 2.8 Å²

Substance: YEATSVQQK [_Y(Nitro (Y))EATSVQQK_]
- collision cross section [13]: 342.71 ± 0.55 Å²

Substance: FVDSKVGEFSGANK [_FVDSK(Trimethyl (K))VGEFSGANK_]
- collision cross section (charge state: 2, modification: Trimethyl (K)): 432.92 Å²

Substance: GGPGSTLSFVGKR [_GGPGSTLSFVGK(Methyl (K))R_]
- collision cross section [10]: 391.3 ± 0.92 Å²
- collision cross section [11]: 452.34 ± 5 Å²

Substance: TSYAQHQQVR [_TSY(Nitro (Y))AQHQQVR_]
- collision cross section [13]: 366.98 ± 0.94 Å²
- collision cross section (charge state: 3, modification: Nitro (Y)): 458.71 ± 1.2 Å²

Substance: DESFLGKLGGTLAR [_DESFLGK(GlyGly (K))LGGTLAR_]
- collision cross section (charge state: 2, modification: GlyGly (K)): 437.68 ± 0.96 Å²
- collision cross section (charge state: 3, modification: GlyGly (K)): 486.51 ± 1.1 Å²

Substance: GTGRGGGGGGGGGAPR [_GTGR(Methyl (R))GGGGGGGGGAPR_]
- collision cross section (charge state: 3, modification: Methyl (R)): 445.93 ± 3.2 Å²

Substance: DESFLGKLGGTLAR [_DESFLGK(Methyl (K))LGGTLAR_]
- collision cross section [10]: 408.12 ± 0.81 Å²
- collision cross section [11]: 471.83 ± 2.8 Å²
